From patent publication EP1988165A1 (THE UNIVERSITY OF NORTH CAROLINA AT CHAPEL HILL, dated 2008)

What was measured:
[1] = biological target: T1, CDC53 fused in-frame with the Gal4 DNA binding domain (pGBT8-CDC53) (yeast; Saccharomyces cerevisiae, UniProt P04386 1-147; Q12018 1-815); experiment: yeast two-hybrid, histidine reporter (FIG. 5D)
[2] = biological target: T2, CUL-B (ORF YGR003w) fused in-frame with the Gal4 DNA binding domain (pGBT8) (yeast; Saccharomyces cerevisiae, UniProt P04386 1-147; P53202 1-744); experiment: yeast two-hybrid, histidine reporter (FIG. 5D)
[3] = biological target: T3, CUL-C (ORF YJL047c) fused in-frame with the Gal4 DNA binding domain (pGBT8) (yeast; Saccharomyces cerevisiae, UniProt P04386 1-147; P47050 1-842); experiment: yeast two-hybrid, histidine reporter (FIG. 5D)
[4] = biological target: T4, mouse APC2 fused to the Gal4 DNA binding domain (yeast; mouse, UniProt P04386 1-147; Q8BZQ7 15-837, limits assumed); experiment: yeast two-hybrid, -LWH medium with 5 mM 3-AT (FIG. 4E)
T4 construct: also called GAL4BD-APC2

[5] = biological target: myc-epitope tagged APC2 (mouse, UniProt Q8BZQ7 15-837, limits assumed); experiment: co-immunoprecipitation from transfected HeLa cells
[6] = biological target: T5, ScAPC2 fused in-frame with the GAL4 activation domain (yeast; Saccharomyces cerevisiae, UniProt Q12440 1-853); experiment: yeast two-hybrid (FIG. 5D)
T5 construct: also called yeast APC2
T5 sequence (looked up): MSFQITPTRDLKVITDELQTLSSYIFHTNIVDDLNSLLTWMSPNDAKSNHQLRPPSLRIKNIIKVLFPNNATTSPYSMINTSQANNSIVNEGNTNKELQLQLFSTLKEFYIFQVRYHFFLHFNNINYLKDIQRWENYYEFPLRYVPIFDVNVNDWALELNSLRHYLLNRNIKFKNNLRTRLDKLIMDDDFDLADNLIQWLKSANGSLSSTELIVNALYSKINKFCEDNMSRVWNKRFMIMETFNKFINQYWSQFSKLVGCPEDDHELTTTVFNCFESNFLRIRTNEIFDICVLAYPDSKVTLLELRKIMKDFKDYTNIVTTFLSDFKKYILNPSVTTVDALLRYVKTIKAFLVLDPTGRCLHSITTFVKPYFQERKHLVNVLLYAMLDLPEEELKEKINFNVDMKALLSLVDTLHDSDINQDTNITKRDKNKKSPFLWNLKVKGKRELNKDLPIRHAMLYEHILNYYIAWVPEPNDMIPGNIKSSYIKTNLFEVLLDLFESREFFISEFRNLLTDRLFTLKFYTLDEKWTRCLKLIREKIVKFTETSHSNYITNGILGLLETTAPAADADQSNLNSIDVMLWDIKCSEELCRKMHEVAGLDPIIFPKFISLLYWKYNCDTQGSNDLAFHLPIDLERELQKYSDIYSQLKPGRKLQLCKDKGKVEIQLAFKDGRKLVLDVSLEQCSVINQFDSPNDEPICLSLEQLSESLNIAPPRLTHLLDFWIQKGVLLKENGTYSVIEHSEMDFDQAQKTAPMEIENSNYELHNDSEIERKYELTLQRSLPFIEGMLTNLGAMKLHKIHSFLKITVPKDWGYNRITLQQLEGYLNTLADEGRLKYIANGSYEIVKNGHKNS

[7] = biological target: human ROC1, untagged (endogenous in HeLa and Saos-2 cells, or in vitro translated) (human, UniProt P62877 1-108); experiment: immunopurification of ROC1 immunocomplexes from HeLa cells and protein microsequencing
[8] = biological target: T1, CDC53 fused in-frame with the Gal4 DNA …; experiment: yeast two-hybrid (FIG. 5D)
[9] = biological target: T2, CUL-B (ORF YGR003w) fused in-frame with …; experiment: yeast two-hybrid (FIG. 5D)
[10] = biological target: T3, CUL-C (ORF YJL047c) fused in-frame with …; experiment: yeast two-hybrid (FIG. 5D)
[11] = biological target: T6, human ROC1 fused in-frame with the DNA activation domain of Gal4 (pGAD-ROC1) (yeast; human, UniProt P62877 1-108); experiment: yeast two-hybrid; library screen with mouse cullin 4A as bait and FIG. 1A
T6 construct: Yeast two-hybrid prey; also called regulator of cullins

[12] = biological target: T7, HA-epitope tagged human ROC1 (human, UniProt P62877 1-108); experiment: co-immunoprecipitation with anti-HA from [35S]-methionine labeled transfected cells (FIG. 3A)
T7 construct: Expressed by transfection in mammalian cells (Saos-2, HeLa, 293T); also called HA-ROC1
T7 sequence (P62877 whole entry): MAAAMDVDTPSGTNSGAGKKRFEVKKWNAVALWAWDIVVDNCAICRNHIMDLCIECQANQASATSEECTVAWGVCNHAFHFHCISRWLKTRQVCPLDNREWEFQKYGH

Sequence of human ROC1, untagged (endogenous in HeLa and Saos-2 cells, or in vitro translated) (P62877 whole entry, the tested form may be a part): as the sequence (P62877 whole entry) above
T6 sequence (P62877 whole entry, the tested form may be a part): as the sequence (P62877 whole entry) above
Sequence of myc-epitope tagged APC2 (Q8BZQ7 15-837 limits assumed): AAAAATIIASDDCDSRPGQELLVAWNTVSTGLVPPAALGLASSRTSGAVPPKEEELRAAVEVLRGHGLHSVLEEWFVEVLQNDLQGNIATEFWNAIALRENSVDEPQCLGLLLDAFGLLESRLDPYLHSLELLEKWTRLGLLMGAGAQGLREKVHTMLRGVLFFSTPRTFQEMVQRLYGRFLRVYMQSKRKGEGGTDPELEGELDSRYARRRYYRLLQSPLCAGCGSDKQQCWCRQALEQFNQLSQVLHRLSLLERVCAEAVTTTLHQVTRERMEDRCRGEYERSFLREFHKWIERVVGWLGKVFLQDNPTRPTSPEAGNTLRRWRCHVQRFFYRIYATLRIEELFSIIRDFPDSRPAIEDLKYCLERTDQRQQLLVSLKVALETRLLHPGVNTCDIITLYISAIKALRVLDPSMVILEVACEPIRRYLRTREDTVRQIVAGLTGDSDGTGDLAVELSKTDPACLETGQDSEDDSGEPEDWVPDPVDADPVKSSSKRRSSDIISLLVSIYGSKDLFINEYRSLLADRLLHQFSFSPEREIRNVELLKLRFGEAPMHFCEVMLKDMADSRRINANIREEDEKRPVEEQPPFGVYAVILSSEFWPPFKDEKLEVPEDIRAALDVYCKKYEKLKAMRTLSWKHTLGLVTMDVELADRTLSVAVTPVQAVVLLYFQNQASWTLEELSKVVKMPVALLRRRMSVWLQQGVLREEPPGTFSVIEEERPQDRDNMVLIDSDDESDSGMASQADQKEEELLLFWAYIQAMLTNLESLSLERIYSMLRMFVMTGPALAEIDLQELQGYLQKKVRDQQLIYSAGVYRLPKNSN

B1: ScAPC11 fused in-frame with the GAL4 activation domain (pGAD) (other, Saccharomyces cerevisiae, UniProt Q12157 1-165, looked up, not shown: large carriers)
chain: MKVKINEVHSVFAWSWHIPSTSDEDAANNDPIGNDEDEDVCGICRASYNGTCPSCKFPGDQCPLVIGLCHHNFHDHCIYRWLDTPTSKGLCPMCRQTFQLQKGLAINDAHVQKFVEIVSRRREEMIEEGVAEEFVDFDEPIRQNTDNPIGRQQVDTILDEDFLLR
notes: also called yeast APC11
B1: no binding [1]; no binding [2]; binds [3].

B2: full length human ROC2 fused in-frame with the yeast Gal4 DNA activation domain (other, not shown: large carriers)
chain: MFSLKKWNPVAMWSWDVECDTCAICRVQVMDACLRCQAENKQEDCVVVWGECNHSFHNCCMSLWVKQNNRCPLCQQDWVVQRIGK
notes: Yeast two-hybrid prey
B2: no binding [4].

B3: HA tagged human ROC2 (other, not shown: small tags and cut ends)
chain: ADVEDGEETCALASHSGSSGSTSGGDKMFSLKKWNPVAMWSWDVECDTCAICRVQVMDACLRCQAENKQEDCVVVWGECNHSFHNCCMSLWVKQNNRCPLCQQDWVVQRIGK
notes: Transfected protein migrates as a doublet; also called HA-ROC2
B3: no binding [5].

B4: ScROC1 fused in-frame with the Gal4 DNA binding domain (pGBT8-ScROC1) (other, yeast;Saccharomyces cerevisiae, UniProt P04386 1-147, looked up)
chain: MKLLSSIEQACDICRLKKLKCSKEKPKCAKCLKNNWECRYSPKTKRSPLTRAHLTEVESRLERLEQLFLLIFPREDLDMILKMDSLQDIKALLTGLFVQDNVNKDAVTDRLASVETDMPLTLRQHRISATSSSEESSNKGQRQLTVSMSNEVDRMDVDEDESQNIAQSSNQSAPVETKKKRFEIKKWTAVAFWSWDIAVDNCAICRNHIMEPCIECQPKAMTDTDNECVAAWGVCNHAFHLHCINKWIKTRDACPLDNQPWQLARCGR
B4: binds [6].

B5: human CUL2, endogenous in HeLa cells (other, UniProt Q13617 1-745, looked up)
chain: MSLKPRVVDFDETWNKLLTTIKAVVMLEYVERATWNDRFSDIYALCVAYPEPLGERLYTETKIFLENHVRHLHKRVLESEEQVLVMYHRYWEEYSKGADYMDCLYRYLNTQFIKKNKLTEADLQYGYGGVDMNEPLMEIGELALDMWRKLMVEPLQAILIRMLLREIKNDRGGEDPNQKVIHGVINSFVHVEQYKKKFPLKFYQEIFESPFLTETGEYYKQEASNLLQESNCSQYMEKVLGRLKDEEIRCRKYLHPSSYTKVIHECQQRMVADHLQFLHAECHNIIRQEKKNDMANMYVLLRAVSTGLPHMIQELQNHIHDEGLRATSNLTQENMPTLFVESVLEVHGKFVQLINTVLNGDQHFMSALDKALTSVVNYREPKSVCKAPELLAKYCDNLLKKSAKGMTENEVEDRLTSFITVFKYIDDKDVFQKFYARMLAKRLIHGLSMSMDSEEAMINKLKQACGYEFTSKLHRMYTDMSVSADLNNKFNNFIKNQDTVIDLGISFQIYVLQAGAWPLTQAPSSTFAIPQELEKSVQMFELFYSQHFSGRKLTWLHYLCTGEVKMNYLGKPYVAMVTTYQMAVLLAFNNSETVSYKELQDSTQMNEKELTKTIKSLLDVKMINHDSEKEDIDAESSFSLNMNFSSKRTKFKITTSMQKDTPQEMEQTRSAVDEDRKMYLQAAIVRIMKARKVLRHNALIQEVISQSRARFNPSISMIKKCIEVLIDKQYIERSQASADEYSYVA
notes: also called cullin 2
B5: binds [7].

B6: ScROC1 fused in-frame with the GAL4 activation domain (pGAD-ScROC1) (other, Saccharomyces cerevisiae, UniProt Q08273 1-121, looked up, not shown: large carriers)
chain: MSNEVDRMDVDEDESQNIAQSSNQSAPVETKKKRFEIKKWTAVAFWSWDIAVDNCAICRNHIMEPCIECQPKAMTDTDNECVAAWGVCNHAFHLHCINKWIKTRDACPLDNQPWQLARCGR
notes: also called yeast ROC1; ROC1p
B6: binds [8]; binds [9]; binds [10].

B7: full-length mouse cullin 4A fused in frame with the DNA-binding domain of Gal4 (other, yeast;mouse, UniProt P04386 1-147, looked up)
chain: MKLLSSIEQACDICRLKKLKCSKEKPKCAKCLKNNWECRYSPKTKRSPLTRAHLTEVESRLERLEQLFLLIFPREDLDMILKMDSLQDIKALLTGLFVQDNVNKDAVTDRLASVETDMPLTLRQHRISATSSSEESSNKGQRQLTVSMADEGPRKGSVSALMGRTNGLTKPAALAGGPAKPGGTGGSRKLVIKNFRDRPRLPDNYTQDTWRKLHEAVKAIQSSTSIRYNLEELYQAVENLCSHKVSPTLYKQLRQVCEDHVQAQILPFREDSLDSVLFLKKINTCWQDHCRQMIMIRSIFLFLDRTYVLQNSMLPSIWDMGLELFRNHIISDRMVQSKTIDGILLLIGRERSGEAVDRSLLRSLLSMLSDLQVYKDSFELKFLEETNCLYAAEGQRLMQDREVPEYLNHVSKRLEEEADRVITYLDHSTQKPLIACVEKQLLGEHLTAILQKGLEHLLDENRVPDLTQMYQLFSRVKGGQHALLQHWSEYIKTFGTTIVINPEKDKDMVQDLLDFKDKVDHVVEVCFQRNERFINLMKESFETFINKRPNKPAELIAKHVDSKLRAGNKEATDEELERILDKIMILFRFIHGKDVFEAFYKKDLAKRLLVGKSASVDAEKSMLSKLKHECGAAFTSKLEGMFKDMELSKDIMVHFKQHMQNQSAPGPIDLTVNILTMGYWPTYTPMEVHLPPEMVRLQEVFKTFYLGKHSGRKLQWQTTLGHAVLKADFKEGKKEFQVSLFQTLVLLMFNEGDGFSFEEIKMATGIEDSELRRTLQSLACGKARVLIKSPKGKEVEDGDKFIFNADFKHKLFRIKINQIQMKETVEEQVSTTERVFQDRQYQIDAAIVRIMKMRKTLGHNLLVSELYNQLKFPVKPGDLKKRIESLIDRDYMERDKDSPNQYHYVA
notes: Yeast two-hybrid bait, also used for the library screen; also called mouse CUL4A; CUL4A
B7: binds [11].

B8: myc-epitope tagged mouse CUL4A (other, UniProt Q3TCH7 1-759, looked up, not shown: small tags and cut ends)
chain: MADEGPRKGSVSALMGRTNGLTKPAALAGGPAKPGGTGGSRKLVIKNFRDRPRLPDNYTQDTWRKLHEAVKAIQSSTSIRYNLEELYQAVENLCSHKVSPTLYKQLRQVCEDHVQAQILPFREDSLDSVLFLKKINTCWQDHCRQMIMIRSIFLFLDRTYVLQNSMLPSIWDMGLELFRNHIISDRMVQSKTIDGILLLIGRERSGEAVDRSLLRSLLSMLSDLQVYKDSFELKFLEETNCLYAAEGQRLMQDREVPEYLNHVSKRLEEEADRVITYLDHSTQKPLIACVEKQLLGEHLTAILQKGLEHLLDENRVPDLTQMYQLFSRVKGGQHALLQHWSEYIKTFGTTIVINPEKDKDMVQDLLDFKDKVDHVVEVCFQRNERFINLMKESFETFINKRPNKPAELIAKHVDSKLRAGNKEATDEELERILDKIMILFRFIHGKDVFEAFYKKDLAKRLLVGKSASVDAEKSMLSKLKHECGAAFTSKLEGMFKDMELSKDIMVHFKQHMQNQSAPGPIDLTVNILTMGYWPTYTPMEVHLPPEMVRLQEVFKTFYLGKHSGRKLQWQTTLGHAVLKADFKEGKKEFQVSLFQTLVLLMFNEGDGFSFEEIKMATGIEDSELRRTLQSLACGKARVLIKSPKGKEVEDGDKFIFNADFKHKLFRIKINQIQMKETVEEQVSTTERVFQDRQYQIDAAIVRIMKMRKTLGHNLLVSELYNQLKFPVKPGDLKKRIESLIDRDYMERDKDSPNQYHYVA
notes: also called myc-mCUL4A; cullin 4A
B8: binds [12].
